Reference: PMC12444478, “Structural insights into the substrate transport mechanism of the amino acid transporter complex” (The Journal of Biological Chemistry, 2025)

Biological target: T1, 4F2hc (CD98hc, SLC3A2), isoform b (human, UniProt P08195-5 1-631)
T1 construct: Purified as a complex with m1 (LAT1); also called heavy chain; source: HEK293F, coexpressed with LAT1, purified (anti-FLAG resin, nickel-NTA, size-exclusion chromatography in GDN)
T1 sequence (looked up): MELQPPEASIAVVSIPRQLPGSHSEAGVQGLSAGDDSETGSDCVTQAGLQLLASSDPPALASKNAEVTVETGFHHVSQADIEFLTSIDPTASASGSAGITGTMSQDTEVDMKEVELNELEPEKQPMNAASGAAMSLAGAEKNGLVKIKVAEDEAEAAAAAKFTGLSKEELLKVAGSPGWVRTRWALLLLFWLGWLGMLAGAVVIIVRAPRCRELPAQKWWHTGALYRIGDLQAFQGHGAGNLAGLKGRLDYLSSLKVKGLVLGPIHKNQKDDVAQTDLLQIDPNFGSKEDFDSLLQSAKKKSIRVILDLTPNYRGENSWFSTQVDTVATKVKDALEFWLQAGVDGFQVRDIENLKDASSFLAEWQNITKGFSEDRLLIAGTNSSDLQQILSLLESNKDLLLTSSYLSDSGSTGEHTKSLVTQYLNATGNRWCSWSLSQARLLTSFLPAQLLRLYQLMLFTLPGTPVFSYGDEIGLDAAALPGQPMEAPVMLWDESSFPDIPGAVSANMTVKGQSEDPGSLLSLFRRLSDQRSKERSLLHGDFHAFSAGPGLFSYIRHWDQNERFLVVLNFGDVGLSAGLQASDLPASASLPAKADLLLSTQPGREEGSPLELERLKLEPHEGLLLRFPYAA
Experiment: cryo-EM structure; LAT1-4F2hc coexpressed and purified as a complex in 25 mM Hepes pH 7.5, 150 mM NaCl, 0.01% GDN; incubated with 10 mM Leu, 1 mM Trp, 1 mM L-DOPA or 1 mM Tyr for 2 h; four structures
Settings: both partners purified

binding result: binds
B1: L-type amino acid transporter 1 (LAT1, SLC7A5) (natural protein)
chain: not shown
notes: LAT1 (SLC7A5), human, full-length cDNA NM_003486.7 in pCAG vector; Purified as a complex with m2 (4F2hc); also called light chain; source: HEK293F, coexpressed with 4F2hc, purified (anti-FLAG resin, nickel-NTA, size-exclusion chromatography in GDN)
